Laboratory results taken from PMC12239584.

Target: RelJ antitoxin (recombinant His-tagged) (M. tuberculosis) (UniProt P9WF24)
Test: native gel or EMSA

Chain of UniProt P9WF24 (P9WF24 whole entry): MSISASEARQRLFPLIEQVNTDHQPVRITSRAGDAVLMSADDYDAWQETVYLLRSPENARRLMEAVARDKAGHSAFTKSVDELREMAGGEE

For “RelK toxin (recombinant His-tagged, unphosphorylated) (from UniProt P9WF08 2-85) (natural protein)”, which stoichiometry N (RelK per RelJ) is on record?
The stoichiometry N (RelK per RelJ) was 1.
